Results from patent publication US20130158095.

Target: TK substrate 1 (HTRF KinEASE-TK kit; Cisbio Inc.)

B1: EML4-ALK fusion polypeptide v1 having the FLAG tag at the N-terminus (protein)
chain: GFAGSLDDSISAASTSDVQDRLSALESRVQQQEDEITVLKAALADVLRRLAISEDHVASVKKSVSSKGQPSPRAVIPMSCITNGSGANRKPSHTSAVSIAGKETLSSAAKSGTEKKKEKPQGQREKKEESHSNDQSPQIRASPSPQPSSQPLQIHRQTPESKNATPTKSIKRPSPAEKSHNSWENSDDSRNKLSKIPSTPKLIPKVTKTADKHKDVIINQEGEYIKMFMRGRPITMFIPSDVDNYDDIRTELPPEKLKLEWAYGYRGKDCRANVYLLPTGEIVYFIASVVVLFNYEERTQRHYLGHTDCVKCLAIHPDKIRIATGQIAGVDKDGRPLQPHVRVWDSVTLSTLQIIGLGTFERGVGCLDFSKADSGVHLCVIDDSNEHMLTVWDWQKKAKGAEIKTTNEVVLAVEFHPTDANTIITCGKSHIFFWTWSGNSLTRKQGIFGKYEKPKFVQCLAFLGNGDVLTGDSGGVMLIWSKTTVEPTPGKGPKVYRRKHQELQAMQMELQSPEYKLSKLRTSTIMTDYNPNYCFAGKTSSISDLKEVPRKNITLIRGLGHGAFGEVYEGQVSGMPNDPSPLQVAVKTLPEVCSEQDELDFLMEALIISKFNHQNIVRCIGVSLQSLPRFILLELMAGGDLKSFLRETRPRPSQPSSLAMLDLLHVARDIACGCQYLEENHFIHRDIAARNCLLTCPGPGRVAKIGDFGMARDIYRASYYRKGGCAMLPVKWMPPEAFMEGIFTSKTDTWSFGVLLWEIFSLGYMPYPSKSNQEVLEFVTSGGRMDPPKNCPGPVYRIMTQCWQHQPEDRPNFAIILERIEYCTQDPDVINTALPIEYGPLVEEEEKVPVRPKDPEGVPPLLVSQQAKREEERSPAAPPPLPTTSSGKAAKKPTAAEVSVRVPRGPAVEGGHVNMAFSQSNPPSELHRVHGSRNKPTSLWNPTYGSWFTEKPTKKNNPIAKKEPHERGNLGLEGSCTVPPNVATGRLPGASLLLEPSSLTANMKEVPLFRLRHFPCGNVNYGYQQQGLPLEAATAPGAGHYEDTILKSKNSMNQPGP
Question: Which “count of HTRF (that is, phosphorylation of the peptide substrate)” value does the source give for B1 here?
Answer: increased by about 12 times by the addition of ATP compare to no addition of ATP
